From article PMC12241658
Several values for one entry are separate records, joined by “and”; a condition that tells them apart may be missing. Identical values can stand only once.

What was measured:
[1] = target: recombinant human αβ hemoglobin, 6x His tag on the N-terminus of the α subunit (αβHb dimer) (human) (UniProt P69905); assay: BLI
[2] = target: recombinant human αβ hemoglobin (αβHb dimer) (human) (UniProt P69905); assay: BLI
[3] = target: recombinant human adult hemoglobin (αβHb), αβ dimer (human) (UniProt P69905); assay: BLI
[4] = target: ChuA (E. coli CFT073)

“ChuA (outer membrane heme transporter, TonB-dependent transporter) from E. coli CFT073 (receptor)” was tested, and the koff [1] was 0.0574 s⁻¹ and 0.0449 s⁻¹ and 0.0512 s⁻¹ and the kon [1] was 158000 M⁻¹ s⁻¹ and 144000 M⁻¹ s⁻¹ and 173000 M⁻¹ s⁻¹.

In the case of ChuA (receptor), the koff [2] is reported as 0.0574 s⁻¹ and 0.0531 s⁻¹ and the kon [2] is reported as 144000 M⁻¹ s⁻¹ and 118000 M⁻¹ s⁻¹.

“ChuA, outer membrane TonB-dependent heme/hemoglobin transporter of E. coli CFT073 (receptor)” was tested, and the Kd [3] was 71.5 nM.

B1: recombinant human neuroglobin (natural protein)
chain: MERPEPELIRQSWRAVSRSPLEHGTVLFARLFALEPDLLPLFQYNCRQFSSPEDCLSSPEFLDHIRKVMLVIDAAVTNVEDLSSLEEYLASLGRKHRAVGVKLSSFSTVGESLLYMLEKCLGPAFTPATRAAWSQLYGAVVQAMSRGWDGE
B1 gave an EC50 of the growth of E. coli ΔTBDT:ChuOP in LB liquid medium with 200 µM 2,2'-bipyridine, supplemented with serially diluted neuroglobin (nonlinear regression, three parameters) [4] of 826 nM.

B2: recombinant human myoglobin (natural protein)
chain: MGLSDGEWQLVLNVWGKVEADIPGHGQEVLIRLFKGHPETLEKFDKFKHLKSEDEMKASEDLKKHGATVLTALGGILKKKGHHEAEIKPLAQSHATKHKIPVKYLEFISECIIQVLQSKHPGDFGADAQGAMNKALELFRKDMASNYKELGFQG
For B2, the EC50 of the growth of E. coli ΔTBDT:ChuOP in LB liquid medium with 200 µM 2,2'-bipyridine, supplemented with serially diluted myoglobin (nonlinear regression, three parameters) [4] was 24200 nM.
